In PMC11754801, “The molecular basis of Human FN3K mediated phosphorylation of glycated substrates” (Nature Communications, 2025):
Blank lines part the entries; values can stand above or below the molecule they belong to.

Assays:
[1] = molecular target: Full-length (FL) wild-type human (Hs) FN3K, purified from insect cells (human) (UniProt Q9H479); test: SEC; preparative gel filtration during purification from Sf9 cells; HiLoad 16/60 Superdex 75; 10 mM HEPES pH 7.5, 200 mM NaCl, 0.5 mM TCEP; monomeric and dimeric peaks
[2] = molecular target: the molecule itself; test: crystal structure; HsFN3KΔ crystals, space group P212121, two molecules in the asymmetric unit; apo and soaked with nucleotides and DMF

stoichiometry N [1]: 2
Molecule: Full-length (FL) wild-type human (Hs) FN3K, purified from insect cells (from UniProt Q9H479 1-309) (enzyme)

B1: HsFN3KΔ (human FN3K with internal loop truncation: amino acids 117-138 replaced with a GSS linker) (enzyme)
chain: MEQLLRAELRTATLRAFGGPGAGCISEGRAYDTDAGPVFVKVNRRTQARQMFEGEVASLEALRSTGLVRVPRPMKVIDLPGGGAAFVMEHLKMKSLSSQASKLGEQMADLHLYNQKGSSYVDKFGFHTVTCCGFIPQVNEWQDDWPTFFARHRLQAQLDLIEKDYADREARELWSRLQVKIPDLFCGLEIVPALLHGDLWSGNVAEDDVGPIIYDPASFYGHSEFELAIALMFGGFPRSFFTAYHRKIPKAPGFDQRLLLYQLFNYLNHWNHFGREYRSPSLGTMRRLLK
modifications: intermolecular disulfide between Cys24 of each protomer
notes: human FN3K, Gene ID 64122, residues before the truncated loop (117-138); linker that replaces amino acids 117-138; human FN3K, Gene ID 64122, residues after the truncated loop (117-138); Two molecules in the asymmetric unit, domain-swapped dimer; also called apo-HsFN3K; source: E. coli Rosetta 2 (DE3), purified (Ni-NTA, cation exchange, TEV cleavage, SEC); not shown: His6, N-terminal, cleaved
binding result [2]: binds
